{"source": "paper PMC7749166", "about": "(Communications Biology, 2020)", "molecules": {"B1": {"name": "C5a: C5a, a large 74-amino acid glycoprotein; endogenous ligand of C5aR (His6-tag at N-terminal end for AFM tips) (protein)", "chain": "TLQKKIEEIAAKYKHSVVKKCCYDGACVNNDETCEQRAARISLGPRCIKAFTECCVVASQLRANISHKDMQLGR", "modifications": "left off: His6, N-terminal, kept"}}, "key": {"[1]": {"system": "C5aR2", "conditions": "cited from earlier work", "excerpt": "Our mechanistic insights into the C5a binding process to C5aR could offer a new framework to a better understanding or the intriguing functional divergence between the two C5a receptors and could potentially allow delinea ..."}, "[2]": {"target": "T1, C5aR^D282A (Homo sapiens, UniProt P21730, D282A)", "T1 construct": "Flag (N); His8 (C); made in house; host or cells: HEK-293S cells (BacMam baculovirus)", "T1 sequence (P21730 1-350 D282A)": "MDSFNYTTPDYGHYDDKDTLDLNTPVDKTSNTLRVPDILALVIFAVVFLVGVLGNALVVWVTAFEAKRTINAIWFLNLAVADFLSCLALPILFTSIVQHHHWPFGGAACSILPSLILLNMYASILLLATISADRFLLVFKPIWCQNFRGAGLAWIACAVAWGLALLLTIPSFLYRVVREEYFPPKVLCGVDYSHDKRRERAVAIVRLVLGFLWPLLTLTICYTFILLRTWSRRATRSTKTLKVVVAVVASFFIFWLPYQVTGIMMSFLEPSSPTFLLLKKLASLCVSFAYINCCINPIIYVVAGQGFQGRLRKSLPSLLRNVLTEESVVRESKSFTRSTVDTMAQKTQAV", "assay": "FD-/FV-based AFM dynamic force spectroscopy vs D282A mutant", "assay_type": "binding", "procedure": "(§1) The reconstituted C5aR sample solution (either wt-C5aR or mutants) was 20-fold diluted in fusion buffer solution (20 mM HEPES, 300 mM NaCl, and 25 mM MgCl2) and adsorbed on freshly cleaved mica for 15 min. After rinsing with imaging buffer (20 mM HEPES and 300 mM NaCl) the sample was transferred to the AFM.\nRectangular Si3N4 AFM cantilevers with silicon tips (BioLever mini, Bruker) were first cleaned with chloroform for 10 min, rinsed with ethanol, N2 dried, and then cleaned for 15 min in an ultraviolet radiation and ozone cleaner (UV-O, Jetlight, CA, USA). For the aminofunctionalization, the cantilevers were immersed in an ethanolamine solution (3.3 g ethanolamine in 6.6 ml DMSO) overnight and then rinsed in DMSO (3 × 1 min) and ethanol (3 × 1 min), followed by N2 drying. This was followed by the N-hydroxysuccinimide (NHS)-PEG27-acetal linker attachment. A 1 mg portion of the NHS-PEG27-acetal linker (JKU, Linz, Austria) was diluted in 0.5 ml chloroform with 30 µl triethylamine and the cantilevers were immersed in this solution for 2 h. After three rinsing steps of 10 min in chloroform and N2 drying, the cantilevers were immersed in a 1% citric acid solution for 10 min, rinsed with pure water (3 × 5 min), and dried with N2 once more. tris-NTA-derivatized AFM cantilevers were obtained by pipetting 100 µl of a 100 µM tris-N-nitrilotriacetic amine trifluoroacetate (Toronto Research Chemicals, Canada) (tris-NTA) solution onto the cantilevers, followed by the addition of 2 μl of a freshly prepared 1 M NaCNBH3 solution. The cantilevers were incubated for 1 h, then 5 μl of a 1 M ethanolamine solution pH 8.0 was added for 10 min to quench the reaction. tris-NTA cantilevers were further used to obtain C5a-derivatized tips. For this purpose, 100 μl of a 1 μM C5a protein solution was premixed with 5 μl NiCl2 5 mM and the mixture was pipetted onto the tris-NTA cantilevers. After 2 h of incubation time, the cantilevers were washed in HEPES buffer 3 × 5 min.\n(JKU, Linz, Austria) dissolved in 0.5 ml of chloroform with 30 μl of triethylamine, then washed with chloroform and dried with N2. […] After 3 h of reaction, cantilevers were washed with PBS 3 × 5 min.\nAFM experiments were performed with a Multimode 8 AFM equipped with a Nanoscope V controller (Bruker, Santa Barbara, CA, USA) operated in “PeakForce Tapping QNM mode”. All measurements were carried out in imaging buffer at room temperature (≈24 °C). […]\n(§2) In FD-based AFM measurements, the AFM cantilever is oscillated in a sinusoidal manner well below its resonance frequency, while the sample surface is contoured pixel-by-pixel. For each approach–retraction cycle of the oscillating cantilever, a force–distance curve is recorded. […] Adhesion maps were recorded using a scan rate of 0.2 Hz and 256 × 256 pixels. […]"}, "[3]": {"system": "C5aR extracellular side", "assay": "AFM affinity imaging with C5a tip: specificity and receptor height", "assay_type": "binding, human", "conditions": "free C5a in solution", "procedure": "as §1\nRectangular Si3N4 AFM cantilevers with silicon tips (BioLever mini, Bruker) were first cleaned with chloroform for 10 min, rinsed with ethanol, N2 dried, and then cleaned for 15 min in an ultraviolet radiation and ozone cleaner (UV-O, Jetlight, CA, USA). For the aminofunctionalization, the cantilevers were immersed in an ethanolamine solution (3.3 g ethanolamine in 6.6 ml DMSO) overnight and then rinsed in DMSO (3 × 1 min) and ethanol (3 × 1 min), followed by N2 drying. This was followed by the N-hydroxysuccinimide (NHS)-PEG27-acetal linker attachment. […]\nas §2\nSeveral control experiments were designed to ensure that the measured interactions were indeed specific and the functionalization of the AFM tip successful. […]"}, "[4]": {"conditions": "FNdY fit, ± s.e.m., ligand-derivatized AFM tip, 20 mM HEPES, 300 mM NaCl, ≈24 °C"}}}
{"molecule": "B1", "values": [{"measurement": "C5a binding to C5aR2 upon mutation of three N-terminal tyrosine residues", "setting": "[1]", "value": "did not significantly change C5a binding to C5aR2"}, {"measurement": "G-protein coupling at C5aR2", "setting": "[1]", "value": "without any detectable G-protein coupling"}, {"measurement": "β arrestins (βarr) recruitment at C5aR2", "setting": "[1]", "value": "robust β arrestins (βarr) recruitment"}, {"measurement": "drop of the ΔGbu vs wild type", "setting": "[2]; AFM, D282A vs WT", "value": "four"}, {"measurement": "binding equilibrium free energy ΔGbu", "setting": "[2]; [4]", "value": "-3.4 ± 0.7", "unit": "kcal/mol"}, {"measurement": "equilibrium force Feq", "setting": "[2]; [4]", "value": "27 ± 3", "unit": "pN"}, {"measurement": "residence time τ0.5", "setting": "[2]; FNdY fit, ligand-derivatized AFM tip, 20 mM HEPES, 300 mM NaCl, ≈24 °C", "value": 0.08, "unit": "ms"}, {"measurement": "binding probability of C5a tip after blocking with free C5a", "setting": "[3]", "value": "significantly reduces the binding probability"}]}
